Data as given in IntAct's records for PubMed 31515488.

B1: Sodium channel modifier 1 (Homo sapiens), Q9BWG6 (parent)
chain: MSFKREGDDWSQLNVLKKRRVGDLLASYIPEDEALMLRDGRFACAICPHRPVLDTLAMLTAHRAGKKHLSSLQLFYGKKQPGKERKQNPKHQNELRREETKAEAPLLTQTRLITQSALHRAPHYNSCCRRKYRPEAPGPSVSLSPMPPSEVKLQSGKISREPEPAAGPQAEESATVSAPAPMSPTRRRALDHYLTLRSSGWIPDGRGRWVKDENVEFDSDEEEPPDLPLD
B2: Caspase recruitment domain-containing protein 9 (Homo sapiens), Q9H257 (parent)
chain: MSDYENDDECWSVLEGFRVTLTSVIDPSRITPYLRQCKVLNPDDEEQVLSDPNLVIRKRKVGVLLDILQRTGHKGYVAFLESLELYYPQLYKKVTGKEPARVFSMIIDASGESGLTQLLMTEVMKLQKKVQDLTALLSSKDDFIKELRVKDSLLRKHQERVQRLKEECEAGSRELKRCKEENYDLAMRLAHQSEEKGAALMRNRDLQLEIDQLKHSLMKAEDDCKVERKHTLKLRHAMEQRPSQELLWELQQEKALLQARVQELEASVQEGKLDRSSPYIQVLEEDWRQALRDHQEQANTIFSLRKDLRQGEARRLRCMEEKEMFELQCLALRKDSKMYKDRIEAILLQMEEVAIERDQAIATREELHAQHARGLQEKDALRKQVRELGEKADELQLQVFQCEAQLLAVEGRLRRQQLETLVLSSDLEDGSPRRSQELSLPQDLEDTQLSDKGCLAGGGSPKQPFAALHQEQVLRNPHDAGLSSGEPPEKERRRLKESFENYRRKRALRKMQKGWRQGEEDRENTTGSDNTDTEGS
partner: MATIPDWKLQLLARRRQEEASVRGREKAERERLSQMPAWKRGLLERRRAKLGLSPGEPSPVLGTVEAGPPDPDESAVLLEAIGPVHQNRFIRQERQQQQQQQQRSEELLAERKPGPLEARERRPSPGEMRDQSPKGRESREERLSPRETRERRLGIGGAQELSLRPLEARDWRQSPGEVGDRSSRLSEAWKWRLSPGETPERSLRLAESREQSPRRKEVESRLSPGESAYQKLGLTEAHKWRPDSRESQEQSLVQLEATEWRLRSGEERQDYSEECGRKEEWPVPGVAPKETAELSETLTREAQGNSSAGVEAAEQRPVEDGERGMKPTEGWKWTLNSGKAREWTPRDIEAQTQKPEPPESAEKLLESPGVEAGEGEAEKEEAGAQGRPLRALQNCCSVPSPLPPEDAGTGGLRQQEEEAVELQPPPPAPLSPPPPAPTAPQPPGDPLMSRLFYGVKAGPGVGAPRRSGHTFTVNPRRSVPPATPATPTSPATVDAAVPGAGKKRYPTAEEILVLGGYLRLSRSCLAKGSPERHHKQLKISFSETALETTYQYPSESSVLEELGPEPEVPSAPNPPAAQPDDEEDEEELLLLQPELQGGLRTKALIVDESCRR
B3: TBC1 domain family member 7 (Homo sapiens), Q9P0N9 (parent)
chain: MTEDSQRNFRSVYYEKVGFRGVEEKKSLEILLKDDRLDTEKLCTFSQRFPLPSMYRALVWKVLLGILPPHHESHAKVMMYRKEQYLDVLHALKVVRFVSDATPQAEVYLRMYQLESGKLPRSPSFPLEPDDEVFLAIAKAMEEMVEDSVDCYWITRRFVNQLNTKYRDSLPQLPKAFEQYLNLEDGRLLTHLRMCSAAPKLPYDLWFKRCFAGCLPESSLQRVWDKVVSGSCKILVFVAVEILLTFKIKVMALNSAEKITKFLENIPQDSSDAIVSKAIDLWHKHCGTPVHSS
partner: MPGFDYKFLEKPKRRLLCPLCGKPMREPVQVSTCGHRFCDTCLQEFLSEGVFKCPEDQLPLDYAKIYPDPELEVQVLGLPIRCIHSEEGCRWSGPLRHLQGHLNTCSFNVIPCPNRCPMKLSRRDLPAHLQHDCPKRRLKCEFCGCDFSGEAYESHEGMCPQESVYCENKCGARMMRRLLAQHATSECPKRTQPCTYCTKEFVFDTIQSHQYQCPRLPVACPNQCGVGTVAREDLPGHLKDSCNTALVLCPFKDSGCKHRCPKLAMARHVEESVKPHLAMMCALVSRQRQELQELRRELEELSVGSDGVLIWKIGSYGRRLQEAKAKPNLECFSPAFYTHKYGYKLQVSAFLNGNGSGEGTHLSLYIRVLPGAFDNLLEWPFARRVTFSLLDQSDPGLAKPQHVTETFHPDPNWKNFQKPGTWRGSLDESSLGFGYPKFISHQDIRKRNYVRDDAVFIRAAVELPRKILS
B4: Fas-activated serine/threonine kinase (Homo sapiens), Q14296-1 (parent)
chain: MRRPRGEPGPRAPRPTEGATCAGPGESWSPSPNSMLRVLLSAQTSPARLSGLLLIPPVQPCCLGPSKWGDRPVGGGPSAGPVQGLQRLLEQAKSPGELLRWLGQNPSKVRAHHYSVALRRLGQLLGSRPRPPPVEQVTLQDLSQLIIRNCPSFDIHTIHVCLHLAVLLGFPSDGPLVCALEQERRLRLPPKPPPPLQPLLRGGQGLEAALSCPRFLRYPRQHLISSLAEARPEELTPHVMVLLAQHLARHRLREPQLLEAIAHFLVVQETQLSSKVVQKLVLPFGRLNYLPLEQQFMPCLERILAREAGVAPLATVNILMSLCQLRCLPFRALHFVFSPGFINYISGTPHALIVRRYLSLLDTAVELELPGYRGPRLPRRQQVPIFPQPLITDRARCKYSHKDIVAEGLRQLLGEEKYRQDLTVPPGYCTDFLLCASSSGAVLPVRTQDPFLPYPPRSCPQGQAASSATTRDPAQRVVLVLRERWHFCRDGRVLLGSRALRERHLGLMGYQLLPLPFEELESQRGLPQLKSYLRQKLQALGLRWGPEGG
partner: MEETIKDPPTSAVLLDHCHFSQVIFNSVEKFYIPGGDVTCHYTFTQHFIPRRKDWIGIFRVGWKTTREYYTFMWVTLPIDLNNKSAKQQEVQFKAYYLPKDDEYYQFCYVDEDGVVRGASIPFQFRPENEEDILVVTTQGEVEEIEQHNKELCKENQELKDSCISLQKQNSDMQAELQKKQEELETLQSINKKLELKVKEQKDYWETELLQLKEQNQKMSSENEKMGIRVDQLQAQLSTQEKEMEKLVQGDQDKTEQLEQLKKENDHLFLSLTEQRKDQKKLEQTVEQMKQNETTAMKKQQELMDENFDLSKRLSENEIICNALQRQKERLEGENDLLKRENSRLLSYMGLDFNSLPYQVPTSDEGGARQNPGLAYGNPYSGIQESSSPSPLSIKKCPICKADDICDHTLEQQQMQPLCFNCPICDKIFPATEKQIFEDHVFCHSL
B5: Regulator of G-protein signaling 20 (Homo sapiens), O76081 (parent)
chain: MPQLSQDNQECLQKHFSRPSIWTQFLPLFRAQRYNTDIHQITENEGDLRAVPDIKSFPPAQLPDSPAAPKLFGLLSSPLSSLARFFSHLLRRPPPEAPRRRLDFSPLLPALPAARLSRGHEELPGRLSLLLGAALALPGRPSGGRPLRPPHPVAKPREEDATAGQSSPMPQMGSERMEMRKRQMPAAQDTPGAAPGQPGAGSRGSNACCFCWCCCCSCSCLTVRNQEDQRPTIASHELRADLPTWEESPAPTLEEVNAWAQSFDKLMVTPAGRNAFREFLRTEFSEENMLFWMACEELKKEANKNIIEEKARIIYEDYISILSPKEVSLDSRVREVINRNMVEPSQHIFDDAQLQIYTLMHRDSYPRFMNSAVYKDLLQSLSEKSIEA
partner: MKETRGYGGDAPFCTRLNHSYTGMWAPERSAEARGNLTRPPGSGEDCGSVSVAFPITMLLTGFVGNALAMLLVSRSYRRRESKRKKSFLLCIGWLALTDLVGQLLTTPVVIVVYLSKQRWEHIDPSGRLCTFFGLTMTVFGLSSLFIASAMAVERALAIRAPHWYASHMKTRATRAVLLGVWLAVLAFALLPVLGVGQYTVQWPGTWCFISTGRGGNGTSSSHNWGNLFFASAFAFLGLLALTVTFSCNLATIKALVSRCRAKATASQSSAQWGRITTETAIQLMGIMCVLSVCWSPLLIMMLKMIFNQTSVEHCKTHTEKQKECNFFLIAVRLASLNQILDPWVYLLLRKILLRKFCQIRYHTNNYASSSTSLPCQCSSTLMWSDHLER
B6: Keratin, type I cytoskeletal 20 (Homo sapiens), P35900 (parent)
chain: MDFSRRSFHRSLSSSLQAPVVSTVGMQRLGTTPSVYGGAGGRGIRISNSRHTVNYGSDLTGGGDLFVGNEKMAMQNLNDRLASYLEKVRTLEQSNSKLEVQIKQWYETNAPRAGRDYSAYYRQIEELRSQIKDAQLQNARCVLQIDNAKLAAEDFRLKYETERGIRLTVEADLQGLNKVFDDLTLHKTDLEIQIEELNKDLALLKKEHQEEVDGLHKHLGNTVNVEVDAAPGLNLGVIMNEMRQKYEVMAQKNLQEAKEQFERQTAVLQQQVTVNTEELKGTEVQLTELRRTSQSLEIELQSHLSMKESLEHTLEETKARYSSQLANLQSLLSSLEAQLMQIRSNMERQNNEYHILLDIKTRLEQEIATYRRLLEGEDVKTTEYQLSTLEERDIKKTRKIKTVVQEVVDGKVVSSEVKEVEENI
partner: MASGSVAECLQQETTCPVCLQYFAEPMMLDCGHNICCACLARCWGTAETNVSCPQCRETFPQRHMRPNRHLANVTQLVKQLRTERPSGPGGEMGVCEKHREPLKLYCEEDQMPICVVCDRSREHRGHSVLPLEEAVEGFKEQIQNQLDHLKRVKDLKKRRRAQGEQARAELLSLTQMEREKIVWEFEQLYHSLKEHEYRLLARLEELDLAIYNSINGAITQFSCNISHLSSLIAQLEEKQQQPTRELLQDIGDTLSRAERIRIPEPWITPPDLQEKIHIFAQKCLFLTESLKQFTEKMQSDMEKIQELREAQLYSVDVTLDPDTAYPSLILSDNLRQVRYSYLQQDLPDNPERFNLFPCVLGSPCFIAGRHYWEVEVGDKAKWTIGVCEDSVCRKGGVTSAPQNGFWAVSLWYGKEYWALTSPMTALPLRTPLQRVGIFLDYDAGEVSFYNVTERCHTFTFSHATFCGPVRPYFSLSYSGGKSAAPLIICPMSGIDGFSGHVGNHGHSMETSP

Variants of: B1
Conditions: with hm20a_human HMG20A
In the case of R206P, the “effect of a mutation on the interaction” value is reported as “with no effect”.

Variants of: B1
Conditions: with trim1_human MID2, Q9UJV3
Chain of trim1_human MID2, Q9UJV3 (Q9UJV3 whole entry): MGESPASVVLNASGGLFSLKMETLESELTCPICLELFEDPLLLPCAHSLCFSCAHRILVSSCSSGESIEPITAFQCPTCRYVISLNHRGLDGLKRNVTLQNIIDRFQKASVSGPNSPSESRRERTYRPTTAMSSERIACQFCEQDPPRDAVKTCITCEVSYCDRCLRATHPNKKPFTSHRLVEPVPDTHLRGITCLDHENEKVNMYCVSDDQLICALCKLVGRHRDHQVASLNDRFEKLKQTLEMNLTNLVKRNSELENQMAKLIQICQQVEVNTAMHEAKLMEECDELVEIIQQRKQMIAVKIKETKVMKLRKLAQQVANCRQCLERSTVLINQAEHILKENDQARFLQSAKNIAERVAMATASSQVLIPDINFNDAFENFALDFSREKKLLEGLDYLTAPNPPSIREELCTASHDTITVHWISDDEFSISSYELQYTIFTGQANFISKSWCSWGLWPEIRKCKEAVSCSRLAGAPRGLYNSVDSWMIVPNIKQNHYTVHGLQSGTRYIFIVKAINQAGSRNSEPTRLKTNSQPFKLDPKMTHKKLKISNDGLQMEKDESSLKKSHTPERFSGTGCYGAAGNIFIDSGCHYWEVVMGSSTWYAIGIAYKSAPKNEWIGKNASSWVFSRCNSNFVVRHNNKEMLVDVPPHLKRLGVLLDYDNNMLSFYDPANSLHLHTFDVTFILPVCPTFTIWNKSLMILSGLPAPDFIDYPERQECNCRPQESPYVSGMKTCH
With R206P the “effect of a mutation on the interaction” value was “with no effect”.

Variants of: B1
Conditions: with pls1_human PLSCR1, O15162
Chain of pls1_human PLSCR1, O15162 (O15162 whole entry): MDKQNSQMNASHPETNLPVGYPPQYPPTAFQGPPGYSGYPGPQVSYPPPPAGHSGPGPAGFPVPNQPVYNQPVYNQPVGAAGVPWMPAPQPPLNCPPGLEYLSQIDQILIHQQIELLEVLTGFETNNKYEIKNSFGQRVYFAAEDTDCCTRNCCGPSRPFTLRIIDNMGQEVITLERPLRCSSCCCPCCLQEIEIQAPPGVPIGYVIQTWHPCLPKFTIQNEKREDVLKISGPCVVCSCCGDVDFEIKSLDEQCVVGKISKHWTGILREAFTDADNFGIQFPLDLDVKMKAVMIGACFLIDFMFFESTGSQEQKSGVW
R206P was tested, and the “effect of a mutation on the interaction” value was “with no effect”.

Variants of: B1
Conditions: with inca1_human INCA1, Q0VD86
Chain of inca1_human INCA1, Q0VD86 (Q0VD86 whole entry): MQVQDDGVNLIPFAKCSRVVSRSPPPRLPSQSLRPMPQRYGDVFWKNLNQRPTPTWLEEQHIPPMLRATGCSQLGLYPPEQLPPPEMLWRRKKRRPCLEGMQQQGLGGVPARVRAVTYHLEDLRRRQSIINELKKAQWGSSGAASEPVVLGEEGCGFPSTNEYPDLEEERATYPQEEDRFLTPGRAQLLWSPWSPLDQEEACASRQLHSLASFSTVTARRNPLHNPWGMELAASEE
In the case of R206P, the “effect of a mutation on the interaction” value is reported as “with no effect”.

Variants of: B2
Conditions: with ppr18_human PPP1R18, Q6NYC8
With V385L the “effect of a mutation on the interaction” value was “disrupting interaction strength”.

Variants of: B3
Conditions: with traf4_human TRAF4, Q9BUZ4
In the case of L67W, the “effect of a mutation on the interaction” value is reported as “with no effect”.

Variants of: B4
Conditions: with caco2_human CALCOCO2, Q13137
With V424L the “effect of a mutation on the interaction” value was “with no effect”.

Variants of: B5
Conditions: with pe2r3_human PTGER3, P43115
H347Y was tested, and the “effect of a mutation on the interaction” value was “with no effect”.

Variants of: B6
Conditions: with tri27_human TRIM27, P14373
For S129N, the “effect of a mutation on the interaction” value was “with no effect”. S309Y was tested, and the “effect of a mutation on the interaction” value was “with no effect”.
